Holding throughout (test): cell-based or functional assay
Assay [1] deals with T1, human complement component C3 (human, UniProt P01024 23-1663).
Assay [2] addresses T1, human complement component C3. This is another data set of the same source.
For assay [3] the target is unchanged. The source holds these as a separate data set.
For assay [4] the target is unchanged. The source holds these as a separate data set.

B1: CA28-AEEAc-Lys-(PEG30k) (peptide)
peptide: ICVWQDWGAHRCTK
modifications: not fully specified; N-terminal acetyl; 1-methyl-Trp at position 4; disulfide Cys2-Cys12; AEEAc (8-amino-3,6-dioxaoctanoyl) spacer between Thr13 and Lys; C-terminal amide; linear monofunctional 30 kD PEG (NOF ME-300GS) on the Lys side …
In the case of B1, in assay [1], the “IC50, classical complement inhibition assay (C3b deposition ELISA, human plasma)” value amounted to 1260 nM.

B2: CA28-AEEAc-Lys(mPEG40K-hexanoyl) (peptide)
peptide: ICVWQDWGAHRCTK
modifications: N-terminal acetyl; 1-methyl-Trp at position 4; disulfide Cys2-Cys12; AEEAc spacer between Thr13 and Lys; C-terminal amide; linear 40 kD mPEG (NOF ME-400HS) on the Lys side chain
Regarding B2, in assay [2], the “IC50 (read off the curve), inhibition of classical pathway complement activation (C3b deposition ELISA)” value (from here on “IC50 (read off the curve), inhibition”) is around 700 nM.

B3: CA28-AEEAc-Lys(mPEG40K-carbonyl) (peptide)
peptide: ICVWQDWGAHRCTK
modifications: not fully specified; N-terminal acetyl; 1-methyl-Trp at position 4; disulfide Cys2-Cys12; AEEAc spacer between Thr13 and Lys; C-terminal amide; linear 40 kD mPEG (NOF ME-400TS) on the Lys side chain
Consider B3, for which the “IC50 (read off the curve), inhibition” value in assay [2] is around 600 nM.

B4: CA28-AEEAc-Lys(mPEG40K-succinyl) (peptide)
peptide: ICVWQDWGAHRCTK
modifications: N-terminal acetyl; 1-methyl-Trp at position 4; disulfide Cys2-Cys12; AEEAc spacer between Thr13 and Lys; C-terminal amide; linear 40 kD mPEG (NOF ME-400CS) on the Lys side chain
For B4, the “IC50 (read off the curve), inhibition” value in assay [2] was around 700 nM.

B5: CA28-AEEAc-Lys-(PEG40k) (peptide)
peptide: ICVWQDWGAHRCTK
modifications: not fully specified; N-terminal acetyl; 1-methyl-Trp at position 4; disulfide Cys2-Cys12; AEEAc spacer between Thr13 and Lys; C-terminal amide; linear monofunctional 40 kD mPEG (NOF ME-400GS) on the Lys side chain
As to B5, in assay [2], the “IC50 (read off the curve), inhibition” value is around 600 nM. Further, in assay [1], the “IC50, classical complement inhibition assay (C3b deposition ELISA, human plasma)” value worked out at 1290 nM.

B6: CA28-2GS-BF (bifunctionalized PEG-based compstatin analog, GS type) (peptide)
peptide: ICVWQDWGAHRCTK
modifications: not fully specified; N-terminal acetyl; 1-methyl-Trp at position 4; disulfide Cys2-Cys12; AEEAc spacer between Thr13 and Lys; C-terminal amide; Lys side chain coupled to one end of a linear bifunctional 40 kD PEG (glutaryl, GS type; amide plus ester linkage)
With B6, in assay [3], the “% Parent in Q1 (Type III cells with high C3d), modified Ham's test, 50 ug/ml” value was 0.01%; the “% Parent in Q2 (Type I and II cells with high C3d), modified Ham's test, 50 ug/ml” value came out at 0.01%; the “% Parent in Q3 (Type III cells without significant C3d), modified Ham's test, 50 ug/ml” value came to 61.5%; the “% Parent in Q4 (Type I and II cells without significant C3d), modified Ham's test, 50 ug/ml” value amounted to 38.5%.

B7: (CA28-AEEAc)8-PEG40k (peptide)
peptide: ICVWQDWGAHRCTK
modifications: N-terminal acetyl; 1-methyl-Trp at position 4; disulfide Cys2-Cys12; AEEAc spacer between Thr13 and Lys; C-terminal amide; Lys side chain coupled to an arm of an eight-arm 40 kD PEG (NOF HGEO-400GS)
B7: the “IC50 on a molar basis (corrected for 7.5 CA28 moieties per molecule), classical complement inhibition assay” value in assay [4] is around 260 nM. For the same molecule, the “IC50, classical complement inhibition assay (C3b deposition ELISA, human plasma), as a function of CA28 moiety concentration” value in assay [1] stood at 1930 nM.

The values above are taken from patent US20200316163A1 (APELLIS PHARMACEUTICALS, published 2020).
